Holding throughout (assay): ELISA, scFv on coated FGFR-Fc
In general terms: ELISA stands for enzyme-linked immunosorbent assay.

For experiment [1], the target named is T1, recombinant human FGFR3c Fc fusion (human, UniProt P22607 141-372).
T1 construct: also called FGFR3IIIc; not shown: Fc part of the FGFR-Fc fusion
T1 sequence: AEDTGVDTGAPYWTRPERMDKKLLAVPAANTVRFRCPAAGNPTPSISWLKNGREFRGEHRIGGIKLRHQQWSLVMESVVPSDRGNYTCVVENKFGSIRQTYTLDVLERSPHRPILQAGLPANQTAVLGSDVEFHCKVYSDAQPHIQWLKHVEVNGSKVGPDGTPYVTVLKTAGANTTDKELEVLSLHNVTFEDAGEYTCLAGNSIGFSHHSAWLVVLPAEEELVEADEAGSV
How it is done:
(§1) To characterize the novel anti-FGFR antibodies, their relative ability to bind to each individual FGFR in vitro was compared. A solid phase-based ELISA was used to measure the relative binding of the candidate antibodies to immobilized recombinant human FGFR1c, FGFR2c, FGFR3c, and FGFR4. EC50 binding curves were generated for a subset of candidates (FIGS. 3A-3D, respectively; Table 1).
(§2) For the ELISA assay, the ability of each mAb to cross react with the […] FGF receptors was tested across a concentration curve in order to determine the relative binding across FGFR1-4. FGFR2IIIb was used as a negative control. Black 384-well Maxisorp plates were coated overnight with FGFR-Fc fusions in PBS to 1 ug/ml before washing and blocking with 75 ul/well Pierce Protein Free (PBS) Blocking Buffer for 1 hour at RT. Antibody dilutions were prepared freshly in 1% BSA- PBS+0.05% Tween20 and 25 ul of each antibody was added to wells in duplicate. Plates were incubated at RT for 2 hours, followed by addition of detection antibody at 50 ng/ml in 1% BSA PBS, 0.05% Tween20. ECL substrate (Pierce) was added and plates were read on the EnVision plate reader.

Experiment [2] concerns the target T2, recombinant human FGFR1c Fc fusion (human, UniProt P11362 141-376).
T2 construct: also called FGFR1IIIc; not shown: Fc part of the FGFR-Fc fusion
T2 sequence: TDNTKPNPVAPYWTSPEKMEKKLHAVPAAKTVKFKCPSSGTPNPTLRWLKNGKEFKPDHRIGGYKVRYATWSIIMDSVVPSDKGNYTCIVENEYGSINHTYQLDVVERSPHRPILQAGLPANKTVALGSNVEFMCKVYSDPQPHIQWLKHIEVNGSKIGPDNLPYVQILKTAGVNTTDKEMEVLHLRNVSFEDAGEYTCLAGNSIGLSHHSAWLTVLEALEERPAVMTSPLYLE
How it is done:
as §1, §2

Experiment [3] has as its target T3, recombinant human FGFR4 Fc fusion (human, UniProt P22455 144-369).
T3 construct: 19 used; also called FGFR4c; not shown: Fc part of the FGFR-Fc fusion
T3 sequence: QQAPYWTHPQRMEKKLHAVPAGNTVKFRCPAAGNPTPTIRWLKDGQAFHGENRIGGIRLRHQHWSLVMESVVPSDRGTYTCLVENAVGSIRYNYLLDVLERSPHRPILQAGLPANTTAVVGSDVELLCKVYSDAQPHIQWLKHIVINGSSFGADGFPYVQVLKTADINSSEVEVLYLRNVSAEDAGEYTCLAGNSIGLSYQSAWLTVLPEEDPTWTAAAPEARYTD
How it is done:
as §1, §2

Experiment [4] deals with T4, FGFR2IIIb Fc fusion (negative control) (human).
T4 construct: also called FGFR2b; not shown: Fc part of the FGFR-Fc fusion
T4 chain: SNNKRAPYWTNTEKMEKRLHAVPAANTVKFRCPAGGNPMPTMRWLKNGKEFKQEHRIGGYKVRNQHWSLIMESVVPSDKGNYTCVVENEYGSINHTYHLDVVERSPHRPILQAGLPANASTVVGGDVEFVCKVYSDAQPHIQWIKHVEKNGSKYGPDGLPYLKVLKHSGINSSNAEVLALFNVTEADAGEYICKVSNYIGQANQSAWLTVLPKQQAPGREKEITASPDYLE
How it is done:
as §1, §2

Experiment [5] addresses T5, recombinant human FGFR2c Fc fusion (human, UniProt P21802 148-377).
T5 construct: also called FGFR2IIIc; not shown: Fc part of the FGFR-Fc fusion
As for the experimental part:
as §1, §2

T5 sequence (P21802 148-377): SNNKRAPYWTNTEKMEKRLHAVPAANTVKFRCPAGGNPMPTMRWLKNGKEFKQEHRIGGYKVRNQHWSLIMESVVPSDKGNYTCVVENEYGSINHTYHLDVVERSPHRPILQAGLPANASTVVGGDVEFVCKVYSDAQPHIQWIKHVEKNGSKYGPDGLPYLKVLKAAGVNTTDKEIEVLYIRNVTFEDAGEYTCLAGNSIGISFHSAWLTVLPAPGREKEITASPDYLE

B1: Ab7 (scFv format) (scFv)
scFv: QVQLVESGGGVVQPGRSLRLSCAASGFTFSGYAIHWVRQAPGKGLEWVALISYDGSNKYYADSAKGRFTISRDNSKNTLSLQMNSLRVEDTAIYYCVRGAGRGYTYGPDGFDIWGQGTMVTVSSASTGGGGSGGGGSGGGGSGGGGSDIVMTQTPLSSPVTLGQPASISCRSSESLVYRDGNTYLSWLHQRPGQSPRLLIYKVSNRFSGVPDRFSGSGAGTDFTLKISRVEAEDVGVYFCMQATQFPWTFGQGTKVEIKRTVAAPSHHHHHH
notes: also called FGF#51
B1: the EC50 (in general, the concentration needed to bring the measured effect to its halfway point) in experiment [1] is 1.36 nM; in experiment [2], 0.201 nM; in experiment [3], 0.278 nM; in experiment [4], around 96700 nM; in experiment [5], 1.47 nM.

B2: Ab4 (scFv format) (scFv)
scFv: EVQLLESGGGVVQPGRSLRLSCAASGFTFSSYAMHWVRQAPGKGLEWVALISYDGSNKYYADSVKGRFTISRDNSKNTLYLQMNSLRAEDTAIYYCVRGAGRGYTYGPDGFDIWGQGTMVTVSSASTGGGSGGGGSDIVMTQTPLSLSVTPGQPASIFCKSSQSLIFGDGKTYLYWYLQKPGQPPRLLIYQVSNRFSGVPDRFSGSGAGTDFTLKISRVEAEDVGVYYCMQAKQFPWTFGQGTKLEIKRTVAAPSHHHHHH
notes: also called FGF#10
In the case of B2, the EC50 in experiment [1] is 25.9 nM; in experiment [2], 0.247 nM; in experiment [3] it was 0.506 nM.

B3: Ab14 (scFv format) (scFv)
scFv: EVQLVETGGGLIQPGGSLRLSCVASGFTVSSNYMSWVRQAPGKGLEWVSVIFSDGTTYYADSVKGRFTISRDNSKNTLYLQMNSLKTEDTAVYYCVAGPANGAYDIWGQGTMVTVSSASTGGGSGGGGSNIQMTQSPSILSASVGDRVTITCRASQSISNWLAWYQQKPGKAPKLLIFRASTLESGVPSRFSGSGSGAEFNLTISSLQPDDFATYYCQQYNVYSGTFGQGTKVEIKRTVAAPSHHHHHH
notes: also called FGF#24
B3: the EC50 in experiment [1] was 77.2 nM; in experiment [2], 129 nM; in experiment [3] it was 72 nM; in experiment [4], around 557000 nM; in experiment [5], 75.7 nM.

B4: Ab3 (scFv format) (scFv)
scFv: EVQLVESGGGVVQPGRSLRLSCAASGFTFSQYSMHWVRQSPGKGLEWVTLISFDGADKYYADSVKGRFTISRDNSNDTLFLHMNGLRVEDTAIYYCVRGAGRGYTYGPDGFDIWGQGTMVTVSSASTGGGGSGGGGSGGGGSGGGGSDIQLTQSPSSLSASVGDRVTITCRTSQTISRYLNWYQQQPGKAPKLLIYTATSLQSGVPSRFSGSGSGTDFTLTIGGLQPEDFAIYFCQQTYSAPLTFGGGTKVEIKRTVAAPSHHHHHH
notes: also called FGF#78
In the case of B4, the EC50 in experiment [1] is 2.02 nM; in experiment [2], 0.319 nM; in experiment [3], 1.07 nM; in experiment [4], around 108000 nM; in experiment [5] it was 0.62 nM.

B5: Ab15 (scFv format) (scFv)
scFv: EVQLLESGGGVVQPGRSLRLSCAASGFTFSSYAMHWVRQAPGKGLEWVAVISYDGSNKYYADSVKGRFTISRDNSKNTLSLQMNSLRVEDTAIYYCVRGAGRGYTYGPDGFDIWGQGTMVTVSSASTGGGGSGGGGSGGGGSGGGGSDIVMTQTPLSLSVTPGQPASISCTSSRSLLHSDGKTYVYWYVQKSGQPPQLLIYELSNRFSGVPDRFSGSGSRTDFTLKISRVEAEDVGVYYCMQYIEAPLTFGGGTKVEIKRTVAAPSHHHHHH
notes: also called FGF#26
Regarding B5, the EC50 is 0.326 nM in experiment [1]; 0.293 nM in experiment [2]; 0.312 nM in experiment [3]; around 80000 nM in experiment [4]; 0.247 nM in experiment [5].

Source of the values: US20180244785A1 (MERRIMACK PHARMACEUTICALS, published 2018).
